Test results: patent US6379959 (UNIVERSITAT AUTONOMA DE BARCELONA, dated 2002)
Positions of bridges follow the written chain, without caps; N, C: chain ends. No end group written: not given here.

Columns and labels:
[1] = target: T1, receptor for epidermic growth factor (EGF-R) on Capan-1 and A431 cells (human (human cell line Capan-1), UniProt P00533 25-1210); assay: competition with 125I-EGF on Capan-1 cells, two-site fit (Graphpad Inplot4); low affinity site
T1 construct: whole, on cells; both are called EGF receptors; also called EGF receptor; receptor of EGF
Procedure: (§1) From the previous adjustment, the value of $IC50$ for the two binding sites and the percentage of each type of binding sites was determined.

[2] = target: T1, receptor for epidermic growth factor …; assay: competition with 125I-EGF on Capan-1 cells, two-site fit (Graphpad Inplot4); high affinity site
Procedure: as §1

B1: potato carboxypeptidase inhibitor, isoform IIa, recombinant (other)
chain: EQHADPICNKPCKTHDDCSGAWFCQACWNSARTCGPYVG
modifications: disulfide 12-27, 18-34, 8-24
notes: Secreted from E. coli MC1061 (pIMAM3, OmpA signal peptide directly before the first codon of native PCI); also called PCI; rPCI
IC50 [1]: 579 µM
IC50 [2]: 0.014 nM
